Broadly, the stoichiometry N is the number of molecules, sites or subunits per partner or assembly.

From publication PMC8093829 come the findings set out here.

For assay [1], the target named is T1, recombinant L-asparaginase refolded from E. coli inclusion bodies, P00805.
T1 chain: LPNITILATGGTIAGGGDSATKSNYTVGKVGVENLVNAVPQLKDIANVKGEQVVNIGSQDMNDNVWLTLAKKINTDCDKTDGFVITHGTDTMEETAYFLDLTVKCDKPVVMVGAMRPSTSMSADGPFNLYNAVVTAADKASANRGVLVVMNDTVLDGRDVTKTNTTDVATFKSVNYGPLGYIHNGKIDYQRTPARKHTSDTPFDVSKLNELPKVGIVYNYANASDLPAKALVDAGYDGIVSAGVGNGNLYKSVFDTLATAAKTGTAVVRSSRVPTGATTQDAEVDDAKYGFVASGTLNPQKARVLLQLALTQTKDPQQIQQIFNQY
Description: SEC; Superdex 200 PG 16/600, equilibrated with 20 mM Tris-HCl, 10% (v/v) glycerol, pH 8.5, eluted in 50 mM Tris-HCl, 0.5 ml/min; DEAE-purified, concentrated refolded L-asparaginase. The settings on record: remark: other sources report otherwise. Background: In gel filtration, larger molecules generally elute earlier.

Assay [2] addresses T2, commercial L-asparaginase 5,000 IU/ml, Bionase 5K, P00805.
T2 chain: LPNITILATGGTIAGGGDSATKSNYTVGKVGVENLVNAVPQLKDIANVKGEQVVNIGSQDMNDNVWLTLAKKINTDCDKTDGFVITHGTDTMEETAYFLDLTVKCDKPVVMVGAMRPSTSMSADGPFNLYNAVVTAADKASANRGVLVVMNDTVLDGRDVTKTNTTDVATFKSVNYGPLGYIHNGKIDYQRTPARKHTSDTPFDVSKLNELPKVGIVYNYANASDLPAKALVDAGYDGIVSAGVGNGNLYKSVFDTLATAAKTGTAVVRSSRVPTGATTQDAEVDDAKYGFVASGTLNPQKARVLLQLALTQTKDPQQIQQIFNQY
Description: SEC; HPLC, TSK gel G3000SWxl, 20 mM Tris-HCl and 100 mM NaCl; commercial L-asparaginase concentrated to 2 mg/ml. The settings on record: remark: other sources report otherwise.

B1: recombinant L-asparaginase refolded from E. coli inclusion bodies, P00805 23-348 (enzyme)
chain: LPNITILATGGTIAGGGDSATKSNYTVGKVGVENLVNAVPQLKDIANVKGEQVVNIGSQDMNDNVWLTLAKKINTDCDKTDGFVITHGTDTMEETAYFLDLTVKCDKPVVMVGAMRPSTSMSADGPFNLYNAVVTAADKASANRGVLVVMNDTVLDGRDVTKTNTTDVATFKSVNYGPLGYIHNGKIDYQRTPARKHTSDTPFDVSKLNELPKVGIVYNYANASDLPAKALVDAGYDGIVSAGVGNGNLYKSVFDTLATAAKTGTAVVRSSRVPTGATTQDAEVDDAKYGFVASGTLNPQKARVLLQLALTQTKDPQQIQQIFNQY
As to B1, the stoichiometry N in assay [1] worked out at 4.

B2: commercial L-asparaginase 5,000 IU/ml, Bionase 5K, P00805 23-348 (enzyme)
chain: LPNITILATGGTIAGGGDSATKSNYTVGKVGVENLVNAVPQLKDIANVKGEQVVNIGSQDMNDNVWLTLAKKINTDCDKTDGFVITHGTDTMEETAYFLDLTVKCDKPVVMVGAMRPSTSMSADGPFNLYNAVVTAADKASANRGVLVVMNDTVLDGRDVTKTNTTDVATFKSVNYGPLGYIHNGKIDYQRTPARKHTSDTPFDVSKLNELPKVGIVYNYANASDLPAKALVDAGYDGIVSAGVGNGNLYKSVFDTLATAAKTGTAVVRSSRVPTGATTQDAEVDDAKYGFVASGTLNPQKARVLLQLALTQTKDPQQIQQIFNQY
As for B2, in assay [2], the stoichiometry N turned out to be 4 and the tetrameric population (%) is 81.4%.
